Patent US20260242485A1 (LEPU BIOPHARMA, published 2026)
Values belong to the binder of their own block, whether it stands above or below them.

Columns and labels:
[1] = biological target: T1, human CD16A-158V expressed on CHO-K1 cells (human, UniProt P08637 17-254); test: flow cytometry, CHO-K1-hCD16A-158V cells, geometric mean
T1 construct: whole, on cells; also called hCD16A-158V; CHO-K1-hCD16A-158V
Source text: (§1) The purpose of the assay was to evaluate the binding of BsAb to each of the hFcγRs.

[2] = biological target: T2, human CD32B expressed on CHO-K1 cells (human, UniProt P31994 43-310); test: flow cytometry, CHO-K1-hCD32B cells, geometric mean
T2 construct: whole, on cells; also called hCD32B
T2 sequence (looked up): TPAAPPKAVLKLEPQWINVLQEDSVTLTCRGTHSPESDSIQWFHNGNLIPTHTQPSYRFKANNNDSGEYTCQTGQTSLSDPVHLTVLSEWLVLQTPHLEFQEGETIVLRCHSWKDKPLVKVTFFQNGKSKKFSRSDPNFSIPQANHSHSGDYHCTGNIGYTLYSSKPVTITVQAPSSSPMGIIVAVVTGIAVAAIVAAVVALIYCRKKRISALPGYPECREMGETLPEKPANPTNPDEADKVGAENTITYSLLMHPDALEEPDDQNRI
Source text: as §1

[3] = biological target: T3, human CD16A-158F expressed on CHO-K1 cells (human, UniProt P08637 17-254); test: flow cytometry, CHO-K1-hCD16A-158F cells, geometric mean
T3 construct: whole, on cells
Source text: as §1

[4] = biological target: T1, human CD16A-158V expressed on CHO-K1 …; test: flow cytometry, CHO-K1-hCD16A-158V cells, geometric mean; remark: listed apart in the source
[5] = biological target: T4, human GPC3 on HepG2 cells (human, UniProt P51654 25-554); test: flow cytometry, HepG2 cells (GPC3 positive), geometric mean
T4 construct: whole, on cells; also called GPC3-positive HepG2 cells

[6] = biological target: T3, human CD16A-158F expressed on CHO-K1 …; test: flow cytometry, CHO-K1-hCD16A-158F cells, geometric mean; remark: listed apart in the source
[7] = biological target: T3, human CD16A-158F expressed on CHO-K1 …; test: flow cytometry, CHO-K1-hCD16A-158F cells, Alexa Fluor 647 anti-human IgG Fc, geometric mean
Method: (§2) In order to evaluate the binding activity of the chimeric mAbs to human CD16A expressed on cells, cell-based binding assay was employed as followed. […] The antibody dilutions were incubated with 1×10⁵ indicated cells in the 96-well microplate for one hour at 4° C. The antibodies binding to the antigen on the cell surface were detected with PE fluorophore-conjugated anti-human IgG Fc secondary antibodies (ThermoFisher scientific, Cat. No. 12-4998-82) at a dilution rate of 1:1000. Cells were analyzed by flow cytometer LSRFortessa Cell Analyzer (BD Biosciences). Data were analyzed with Flowjo 10.0 software. The graph and statistics analysis were generated with four-parameter nonlinear regression curve fit in Graphpad Prism 9 software.
(§3) The assay was performed following the protocol described above. The antibodies binding to the antigen on the cell surface were detected with Alexa Fluor® 647 AffiniPure™ F(ab′)₂ fragment goat anti-human IgG Fcγ fragment specific secondary antibody (Jackson Immuno Research, Cat. No. 109-606-098) at a dilution rate of 1:2000.

[8] = biological target: T5, cynomolgus CD16 expressed on CHO-K1 cells (cynomolgus, UniProt Q8SPW2 17-254); test: flow cytometry, CHO-K1-cyno CD16 cells, Alexa Fluor 647 anti-human IgG Fc, geometric mean
T5 construct: whole, on cells; also called cyno CD16; CHO-K1-cynoCD16
Method: as §2, §3

[9] = biological target: T6, human CD16B-NA1 expressed on CHO-K1 cells (human, UniProt O75015 17-200); test: flow cytometry, CHO-K1-hCD16B-NA1 cells, Alexa Fluor 647 anti-human IgG Fc, geometric mean
T6 construct: whole, on cells; also called hCD16B-NA1; CHO-K1-hCD16B-NA1
Method: as §2, §3

[10] = biological target: T1, human CD16A-158V expressed on CHO-K1 …; test: flow cytometry, CHO-K1-hCD16A-158V cells, Alexa Fluor 647 anti-human IgG Fc, geometric mean
Method: as §2, §3

T1 sequence (P08637 17-254 F176V): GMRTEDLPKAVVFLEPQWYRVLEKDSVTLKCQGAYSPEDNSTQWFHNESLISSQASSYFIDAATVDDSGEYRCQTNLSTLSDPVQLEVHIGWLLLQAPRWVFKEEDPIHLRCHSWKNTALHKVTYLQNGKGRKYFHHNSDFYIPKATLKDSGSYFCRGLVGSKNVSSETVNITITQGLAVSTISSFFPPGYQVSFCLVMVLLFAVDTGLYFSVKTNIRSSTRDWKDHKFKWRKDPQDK
T3 sequence (P08637 17-254): as the sequence (P08637 17-254 F176V) above, with V160F counted along it
T5 sequence (Q8SPW2 17-254): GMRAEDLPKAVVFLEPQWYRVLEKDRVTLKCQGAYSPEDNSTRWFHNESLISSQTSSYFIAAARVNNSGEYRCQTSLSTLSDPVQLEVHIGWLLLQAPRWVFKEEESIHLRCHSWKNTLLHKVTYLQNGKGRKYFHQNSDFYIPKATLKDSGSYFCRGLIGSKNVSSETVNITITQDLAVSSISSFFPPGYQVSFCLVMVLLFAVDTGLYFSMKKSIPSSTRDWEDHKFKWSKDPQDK
T4 sequence (P51654 25-554 limits assumed): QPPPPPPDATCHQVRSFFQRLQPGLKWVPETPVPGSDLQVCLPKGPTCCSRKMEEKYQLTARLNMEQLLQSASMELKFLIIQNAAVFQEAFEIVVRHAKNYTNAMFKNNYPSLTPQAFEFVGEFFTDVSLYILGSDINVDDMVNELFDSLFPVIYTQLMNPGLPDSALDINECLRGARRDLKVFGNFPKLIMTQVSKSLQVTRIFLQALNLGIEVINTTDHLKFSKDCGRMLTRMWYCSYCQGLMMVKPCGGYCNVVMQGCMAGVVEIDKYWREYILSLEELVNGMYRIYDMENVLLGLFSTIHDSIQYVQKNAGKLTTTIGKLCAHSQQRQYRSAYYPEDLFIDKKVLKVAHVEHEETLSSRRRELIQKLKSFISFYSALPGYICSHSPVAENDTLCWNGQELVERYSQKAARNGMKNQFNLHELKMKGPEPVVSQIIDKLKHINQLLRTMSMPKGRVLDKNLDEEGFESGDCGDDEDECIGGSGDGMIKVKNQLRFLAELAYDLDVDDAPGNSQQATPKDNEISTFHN
T6 sequence (O75015 other isoform, or with tags, fused parts or gaps): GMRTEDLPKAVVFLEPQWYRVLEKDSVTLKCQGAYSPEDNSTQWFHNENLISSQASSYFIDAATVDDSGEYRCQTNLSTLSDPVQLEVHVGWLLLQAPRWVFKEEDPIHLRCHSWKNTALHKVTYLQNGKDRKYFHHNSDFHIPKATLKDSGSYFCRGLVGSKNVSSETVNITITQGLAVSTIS

B1: CCR8-hIgG1DE (antibody)
heavy chain: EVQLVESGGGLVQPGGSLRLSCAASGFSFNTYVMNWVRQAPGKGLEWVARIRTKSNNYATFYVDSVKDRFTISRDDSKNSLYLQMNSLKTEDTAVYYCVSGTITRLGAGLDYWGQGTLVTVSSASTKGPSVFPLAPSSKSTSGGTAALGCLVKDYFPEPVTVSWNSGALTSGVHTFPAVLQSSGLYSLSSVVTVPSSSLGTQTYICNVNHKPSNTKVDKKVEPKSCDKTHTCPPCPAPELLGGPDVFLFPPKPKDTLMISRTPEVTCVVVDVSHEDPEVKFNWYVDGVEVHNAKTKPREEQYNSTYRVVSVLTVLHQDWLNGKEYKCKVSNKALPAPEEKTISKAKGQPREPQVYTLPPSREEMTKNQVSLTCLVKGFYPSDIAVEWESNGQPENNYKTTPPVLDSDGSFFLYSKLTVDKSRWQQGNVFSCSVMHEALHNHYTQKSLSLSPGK
light chain: DIVMTQSPLSLPVTPGEPASISCRSSKSLLHSNANTYLYWYLQKPGQSPQLLIYRMSNLASGVPDRFSGSGSGTAFTLKISRVEAEDVGVYYCMQHLEYPFTFGGGTKLEIKRTVAAPSVFIFPPSDEQLKSGTASVVCLLNNFYPREAKVQWKVDNALQSGNSQESVTEQDSKDSTYSLSSTLTLSKADYEKHKVYACEVTHQGLSSPVTKSFNRGEC
notes: also called eADCC CCR8 mAb with Fc-DE (S239D/I332E)
EC50 [1]: 800 pM
binding result [2]: binds
EC50 [3]: 1400 pM

B3: CCR8-hIgG1DLE (antibody)
heavy chain: EVQLVESGGGLVQPGGSLRLSCAASGFSFNTYVMNWVRQAPGKGLEWVARIRTKSNNYATFYVDSVKDRFTISRDDSKNSLYLQMNSLKTEDTAVYYCVSGTITRLGAGLDYWGQGTLVTVSSASTKGPSVFPLAPSSKSTSGGTAALGCLVKDYFPEPVTVSWNSGALTSGVHTFPAVLQSSGLYSLSSVVTVPSSSLGTQTYICNVNHKPSNTKVDKKVEPKSCDKTHTCPPCPAPELLGGPDVFLFPPKPKDTLMISRTPEVTCVVVDVSHEDPEVKFNWYVDGVEVHNAKTKPREEQYNSTYRVVSVLTVLHQDWLNGKEYKCKVSNKALPLPEEKTISKAKGQPREPQVYTLPPSREEMTKNQVSLTCLVKGFYPSDIAVEWESNGQPENNYKTTPPVLDSDGSFFLYSKLTVDKSRWQQGNVFSCSVMHEALHNHYTQKSLSLSPGK
light chain: DIVMTQSPLSLPVTPGEPASISCRSSKSLLHSNANTYLYWYLQKPGQSPQLLIYRMSNLASGVPDRFSGSGSGTAFTLKISRVEAEDVGVYYCMQHLEYPFTFGGGTKLEIKRTVAAPSVFIFPPSDEQLKSGTASVVCLLNNFYPREAKVQWKVDNALQSGNSQESVTEQDSKDSTYSLSSTLTLSKADYEKHKVYACEVTHQGLSSPVTKSFNRGEC
notes: also called eADCC CCR8 mAb with Fc-DLE (S239D/A330L/I332E)
EC50 [1]: 750 pM
binding result [2]: binds
EC50 [3]: 1200 pM

B5: GPC3-45H6E8-z19p1-hIgG1LALAPG (bispecific antibody)
heavy chain (anti-GPC3 heavy chain hIgG1 LALAPG, (G4S)4 linker, 45H6E8-z19p1 scFv): QVQLVQSGAEVKKPGASVKVSCKASGYTFTDYEMHWVRQAPGQGLEWMGAIHPGSGGTAYNQKFKGRVTMTRDTSTSTVYMELSSLRSEDTAVYYCARYYSYAYWGQGTLVTVSSASTKGPSVFPLAPSSKSTSGGTAALGCLVKDYFPEPVTVSWNSGALTSGVHTFPAVLQSSGLYSLSSVVTVPSSSLGTQTYICNVNHKPSNTKVDKKVEPKSCDKTHTCPPCPAPEAAGGPSVFLFPPKPKDTLMISRTPEVTCVVVDVSHEDPEVKFNWYVDGVEVHNAKTKPREEQYNSTYRVVSVLTVLHQDWLNGKEYKCKVSNKALGAPIEKTISKAKGQPREPQVYTLPPSREEMTKNQVSLTCLVKGFYPSDIAVEWESNGQPENNYKTTPPVLDSDGSFFLYSKLTVDKSRWQQGNVFSCSVMHEALHNHYTQKSLSLSPGKGGGGSGGGGSGGGGSGGGGSQVQLVQSGAEVKKPGASVKVSCKVSGYTLTDYYMQWVRQAPGKGLEWIGWIDPEQGDTEYAPKFQGRVTMTADTSTDTAYMELSSLRSEDTAVYYCTTGGNYVDWGQGTTVTVSSGGGGSGGGGSGGGGSDIQMTQSPSFLSASVGDRVTITCKASQNVGTAVAWYQQKPGKAPKLLIYSASNRYTGVPDRFSGSGSGTDFTLTISSLQPEDFATYFCQQYSSYPLLTFGQGTRLEIK
light chain: DIVMTQTPLSLSVTPGQPASISCRSSQSLVHSNGNTYLQWYLQKPGQSPQLLIYKVSNRFSGVPDRFSGSGSGTDFTLKISRVEAEDVGVYYCFQSIHVPYTFGGGTKLEIKRTVAAPSVFIFPPSDEQLKSGTASVVCLLNNFYPREAKVQWKVDNALQSGNSQESVTEQDSKDSTYSLSSTLTLSKADYEKHKVYACEVTHQGLSSPVTKSFNRGEC
EC50 (read off the curve) [4]: ~1000 pM
EC50 (read off the curve) [5]: ~300 pM
EC50 (read off the curve) [6]: ~2000 pM

B8: 45H6E8-z17 (antibody, human IgG1, V domains shown)
VH: QVQLVQSGAEVKKPGASVKVSCKVSGYTLKDYYMQWVRQAPGKGLEWIGWIDPENGDTEYAPKFQGKATMTADTSTDTAYMELSSLRSEDTAVYYCTTGGNYVDWGQGTTVTVSS
VL: DIQMTQSPSFLSASVGDRVTITCKASQNVGTAVAWYQQKPGKAPKLLIYSASNRYTGVPDRFSGSGSGTDFTLTISSLQPEDFATYFCQQYSSYPLLTFGQGTRLEIK
notes: Human IgG1 LALAPG constant region; also called HU-VH1-5 / HU-VL1-3
EC50 (read off the curve) [7]: ~400 pM
EC50 (read off the curve) [8]: ~1000 pM
binding result [9]: no binding (tested: 100 nM)
EC50 (read off the curve) [10]: ~400 pM

Now from value to binder:

EC50 [1]: 100 pM
binding result [2]: binds
EC50 [3]: 95 pM
B2: CCR8-45H6E8-hIgG1 (bispecific antibody)
heavy: not shown
light: DIVMTQSPLSLPVTPGEPASISCRSSKSLLHSNANTYLYWYLQKPGQSPQLLIYRMSNLASGVPDRFSGSGSGTAFTLKISRVEAEDVGVYYCMQHLEYPFTFGGGTKLEIKRTVAAPSVFIFPPSDEQLKSGTASVVCLLNNFYPREAKVQWKVDNALQSGNSQESVTEQDSKDSTYSLSSTLTLSKADYEKHKVYACEVTHQGLSSPVTKSFNRGEC
notes: Format 1: anti-CCR8 IgG1 with wildtype Fc and 45H6E8 scFv at the C-terminus of each heavy chain; also called CCR8-45H6E8-hIgG1 BsAb; CCR8-45H6E8 WT BsAb

EC50 [1]: 450 pM
binding result [2]: binds
EC50 [3]: 3500 pM
B4: CCR8-hIgG1Afucosylated (antibody)
heavy: not shown
light: DIVMTQSPLSLPVTPGEPASISCRSSKSLLHSNANTYLYWYLQKPGQSPQLLIYRMSNLASGVPDRFSGSGSGTAFTLKISRVEAEDVGVYYCMQHLEYPFTFGGGTKLEIKRTVAAPSVFIFPPSDEQLKSGTASVVCLLNNFYPREAKVQWKVDNALQSGNSQESVTEQDSKDSTYSLSSTLTLSKADYEKHKVYACEVTHQGLSSPVTKSFNRGEC
modifications: chain 1 pos 303 (EU N297): the Fc N-glycan lacks core fucose (afucosylated); the letters are unchanged
notes: also called anti-hCCR8 monoclonal antibody with Fc-afucosylated; copies: 2 + 2

EC50 (read off the curve) [4]: ~1000 pM
EC50 (read off the curve) [5]: ~300 pM
EC50 (read off the curve) [6]: ~2000 pM
B6: GPC3-45H6E8-z21p1-hIgG1LALAPG (bispecific antibody)
heavy chain (anti-GPC3 heavy chain hIgG1 LALAPG, (G4S)4 linker, 45H6E8-z21p1 scFv): QVQLVQSGAEVKKPGASVKVSCKASGYTFTDYEMHWVRQAPGQGLEWMGAIHPGSGGTAYNQKFKGRVTMTRDTSTSTVYMELSSLRSEDTAVYYCARYYSYAYWGQGTLVTVSSASTKGPSVFPLAPSSKSTSGGTAALGCLVKDYFPEPVTVSWNSGALTSGVHTFPAVLQSSGLYSLSSVVTVPSSSLGTQTYICNVNHKPSNTKVDKKVEPKSCDKTHTCPPCPAPEAAGGPSVFLFPPKPKDTLMISRTPEVTCVVVDVSHEDPEVKFNWYVDGVEVHNAKTKPREEQYNSTYRVVSVLTVLHQDWLNGKEYKCKVSNKALGAPIEKTISKAKGQPREPQVYTLPPSREEMTKNQVSLTCLVKGFYPSDIAVEWESNGQPENNYKTTPPVLDSDGSFFLYSKLTVDKSRWQQGNVFSCSVMHEALHNHYTQKSLSLSPGKGGGGSGGGGSGGGGSGGGGSQVQLVQSGAEVKKPGASVKVSCKVSGYTLTDYYMQWVRQAPGKGLEWMGWIDPEQGDTEYAPKFQGRVTMTADTSTDTAYMELSSLRSEDTAVYYCTTGGNYVDWGQGTTVTVSSGGGGSGGGGSGGGGSDIQMTQSPSFLSASVGDRVTITCKASQNVGTAVAWYQQKPGKAPKLLIYSASNRYTGVPDRFSGSGSGTDFTLTISSLQPEDFATYFCQQYSSYPLLTFGQGTRLEIK
light chain: DIVMTQTPLSLSVTPGQPASISCRSSQSLVHSNGNTYLQWYLQKPGQSPQLLIYKVSNRFSGVPDRFSGSGSGTDFTLKISRVEAEDVGVYYCFQSIHVPYTFGGGTKLEIKRTVAAPSVFIFPPSDEQLKSGTASVVCLLNNFYPREAKVQWKVDNALQSGNSQESVTEQDSKDSTYSLSSTLTLSKADYEKHKVYACEVTHQGLSSPVTKSFNRGEC

EC50 (read off the curve) [7]: ~400 pM
EC50 (read off the curve) [8]: ~1000 pM
binding result [9]: no binding (tested: 100 nM)
EC50 (read off the curve) [10]: ~400 pM
B7: 45H6E8-z13 (antibody, V domains shown)
VH: QVQLVQSGAEVKKPGASVKVSCKVSGYTLTDYYMQWVRQAPGKGLEWMGWIDPENGDTEYAPKFQGRVTMTEDTSTDTAYMELSSLRSEDTAVYYCATGGNYVDWGQGTTVTVSS
VL: DIQMTQSPSFLSASVGDRVTITCKASQNVGTAVAWYQQKPGKAPKLLIYSASNRYTGVPDRFSGSGSGTDFTLTISSLQPEDFATYFCQQYSSYPLLTFGQGTRLEIK
notes: also called HU-VH1-1 / HU-VL1-3
